{
  "source": "patent US8298782B2",
  "about": "“Reversible MHC multimer staining for functional purification of antigen-specific T cells” (priority 2000, dated 2012)",
  "tested_on": "LLO91-99-specific T cells",
  "assay": "epitope-tag (HSV) staining for surface-bound MHC / dissociation experiments by flow cytometry",
  "assay_type": "cell-based",
  "protocol": "FIG. 5: Development of a reversible MHC multimer staining technology. (a) LLO91-99-specific T cells were stained for 30 min with monomeric or tetrameric (“tet”) LLO91-99/H2-K^d/β2m-HSV-tag or p60217-225/H2-K^d/β2m-HSV-tag reagents. Cells were fixed without washing (upper histogram) or after 2 washing steps (lower histogram) with 1% paraformaldehyde and subsequently stained for remaining HSV-epitope-tag on the cell surface (x-axis). (b+c) LLO91-99-specific T cells were stained for 45 min with LLO91-99/H2-K^dStrep-tag® II peptide/β2-HSV-tag:Strep:Tactin® polypeptide polymers (IBA GmbH) (“poly”), briefly washed to remove unbound reagents, and incubated in the presence (b) or absence (c) of 1 mM d-biotin; all steps were performed at 4° C. Cell aliquots were harvested after different time intervals (indicated above histograms), fixed with 1% paraformaldehyde, and stained for remaining HSV-epitope-tag on the cell surface (x-axis).\nFIG. 6: Improvement of MHC-Strep-tag® II peptide/Strep-Tactin® polypeptide (IBA GmbH) multimer reagents. […]\nFIG. 7: Reversible MHC multimer staining and T cell function. […] (a) Staining for recombinant MHC-molecules (detected by epitope-tag staining, x-axis) on differently treated T cells. […] Numbers of viable bacteria (y-axis) were determined 48 h following Lysteria infection. […]",
  "data": [
    {"molecule": "monomeric MHC/epitope molecules: monomeric LLO91-99/H2-K^d/β2m-HSV-tag reagent (protein, left off: a dimerising Fc or GST; small tags and cut ends, monomeric LLO91-99/H2-K^d/β2m-HSV-tag reagent) MHC heavy: GPHSLRYFVTAVSRPGLGEPRFIAVGYVDDTQFVRFDSDADNPRFEPRAPWMEQEGPEYWEEQTQRAKSDEQWFRVSLRTAQRYYNQSKGGSHTFQRMFGCDVGSDWRLLRGYQQFAYDGRDYIALNEDLKTWTAADTAALITRRKWEQAGDAEYYRAYLEGECVEWLRRYLELGNETLLRTDSPKAHVTYHPRSQVDVTLRCWALGFYPADITLTWQLNGEDLTQDMELVETRPAGDGTFQKWAAVVVPLGKEQNYTCHVHHKGLPEPLTLRWKLPPSTVSNT b2m: IQKTPQIQVYSRHPPENGKPNILNCYVTQFHPPHIEIQMLKNGKKIPKVEMSDMSFSKDWSFYILAHTEFTPTETDTYACRVKHASMAEPKTVYWDRDM peptide: GYKDGNEYI", "values": [
      {"measurement": "MHC monomers on the cell surface", "setting": "after brief washing, 4° C.", "value": "all reagent-derived MHC monomers disappear from the cell surface"},
      {"measurement": "interaction of MHC monomers with T cell surface", "setting": "fixed immediately with paraformaldehyde, no washing", "value": "some detectable interaction"}
    ]}
  ]
}
